Consider one substance from patent US20220213176A1.

This assay concerns the target SARS-CoV-2 K417N+E484K+N501Y+D614G mutant pseudovirus spike (spikeΔ19) (SARS-CoV-2) (UniProt P0DTC2). The assay can be described thus: cell-based or functional assay.

On to S309 dimer (antibody), for which the NT50 (B.1.351) (nM), pseudovirus neutralization stood at 0.36 nM.
